Assay [1] has as its target T1, IL-2Rβγ on human CD8+ T cells, NK cells and CD4+ T cells (human, UniProt P14784 27-551; P31785 23-369).
T1 sequence (looked up) 1: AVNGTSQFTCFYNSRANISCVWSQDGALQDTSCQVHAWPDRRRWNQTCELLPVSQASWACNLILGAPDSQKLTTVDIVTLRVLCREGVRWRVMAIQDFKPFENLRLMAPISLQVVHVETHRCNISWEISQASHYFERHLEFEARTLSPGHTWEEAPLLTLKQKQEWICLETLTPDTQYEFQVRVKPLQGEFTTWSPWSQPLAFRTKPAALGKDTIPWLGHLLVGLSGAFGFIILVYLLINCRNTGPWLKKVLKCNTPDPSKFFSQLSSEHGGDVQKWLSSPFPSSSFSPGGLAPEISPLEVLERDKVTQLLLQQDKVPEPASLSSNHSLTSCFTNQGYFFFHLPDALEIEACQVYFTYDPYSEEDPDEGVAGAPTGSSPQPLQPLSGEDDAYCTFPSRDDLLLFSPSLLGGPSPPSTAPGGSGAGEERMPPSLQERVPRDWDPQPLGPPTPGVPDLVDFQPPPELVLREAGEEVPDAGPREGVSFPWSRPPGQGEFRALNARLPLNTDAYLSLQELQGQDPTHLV
T1 sequence (looked up) 2: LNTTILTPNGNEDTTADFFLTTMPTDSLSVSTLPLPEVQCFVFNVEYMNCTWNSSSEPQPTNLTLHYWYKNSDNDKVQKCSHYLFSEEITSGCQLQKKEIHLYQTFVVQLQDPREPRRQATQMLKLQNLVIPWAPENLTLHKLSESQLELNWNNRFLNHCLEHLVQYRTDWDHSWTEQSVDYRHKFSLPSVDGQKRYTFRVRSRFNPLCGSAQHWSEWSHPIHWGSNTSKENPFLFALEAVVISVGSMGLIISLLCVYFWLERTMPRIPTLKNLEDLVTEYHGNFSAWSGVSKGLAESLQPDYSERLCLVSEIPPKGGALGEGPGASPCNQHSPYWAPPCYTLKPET
The experiment in a line: cell-based or functional assay.

Assay [2] addresses T2, IL-2Rα (CD25) on human CD4+ Treg cells (human, UniProt P01589 22-272).
T2 sequence (looked up): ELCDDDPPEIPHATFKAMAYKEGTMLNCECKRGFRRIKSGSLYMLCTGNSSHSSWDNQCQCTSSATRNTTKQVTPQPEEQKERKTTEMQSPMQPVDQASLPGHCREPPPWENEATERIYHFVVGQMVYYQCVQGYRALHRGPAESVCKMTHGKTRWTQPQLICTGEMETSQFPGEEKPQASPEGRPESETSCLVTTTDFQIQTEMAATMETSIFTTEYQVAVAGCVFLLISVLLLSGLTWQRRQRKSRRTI
Nature of the assay: cell-based or functional assay.

For assay [3], the target named is huPD-1-His (human, UniProt Q15116 25-167, limits assumed). Nature of the assay: ELISA, huPD-1-His coated. The method, then: A panel of IL-2 muteins was expressed as C-terminal fusions to the Fc homodimer of Fc heterodimer and screened for binding to IL-2Rα in enzyme-linked immunosorbent assay (ELISA). Briefly, IL-2Rα-ECD (SEQ ID NO: 5) was coated onto the wells of Nunc Maxisorp 96-well microplates at 0.1 μg/well. After overnight incubation at 4° C. and blocking with superblock (Thermo Fisher), 3-fold serial dilutions of IL-2 Fc fusion proteins starting at 100 nM were added to each well at 100 μI/well. Following one-hour incubation at room temperature, 100 μl/well of goat anti-human IgG Fc-HRP (1:5000 diluted in diluent) were added to each well and incubated at room temperature for 1 hour. Wells were thoroughly aspirated and washed three times with PBS/0.05% Tween-20 following each step. Finally, 100 μl TMB substrate was added to each well; the plate was developed at room temperature in the dark for 10 minutes, and 100 μl/well of stop solution (2N Sulfuric acid, Ricca Chemical) was added. Absorbance was determined at 450 nm and curves were fit using Prism software (Graph Pad).
huPD-1-His, sequence (Q15116 25-167 limits assumed): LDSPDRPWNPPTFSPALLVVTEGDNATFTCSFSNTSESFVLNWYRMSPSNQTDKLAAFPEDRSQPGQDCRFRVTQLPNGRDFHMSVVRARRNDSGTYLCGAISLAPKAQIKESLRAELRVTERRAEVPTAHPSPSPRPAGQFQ
(§1) For direct binding, the same ELISA protocol in Example 4 was followed using huPD-1-His as the coating antigen. […] Briefly, plate was coated with 0.2 μg/well of human PD1-Fc protein at 4° C. for overnight. […] Streptavidin-HRP was added as the secondary antibody.
Background: ELISA stands for enzyme-linked immunosorbent assay.

Assay [4] deals with human PD1-Fc protein (human, UniProt Q15116 25-167, limits assumed). The experiment in a line: competition ELISA, human PD1-Fc coated, biotinylated Human PDL1-Fc at 0.5 µg/mL as the ligand displaced. The protocol:
as §1

The target in assay [5] is T3, recombinant IL-2Rβγ heterodimer (human).
T3 construct: IL-2Rβ ECD at the N-terminus of Fc hole chain, γc ECD at the N-terminus of Fc knob chain; also called recombinant IL-2Rβγ protein; dimeric IL-2Rβγ receptor
T3 chain 1: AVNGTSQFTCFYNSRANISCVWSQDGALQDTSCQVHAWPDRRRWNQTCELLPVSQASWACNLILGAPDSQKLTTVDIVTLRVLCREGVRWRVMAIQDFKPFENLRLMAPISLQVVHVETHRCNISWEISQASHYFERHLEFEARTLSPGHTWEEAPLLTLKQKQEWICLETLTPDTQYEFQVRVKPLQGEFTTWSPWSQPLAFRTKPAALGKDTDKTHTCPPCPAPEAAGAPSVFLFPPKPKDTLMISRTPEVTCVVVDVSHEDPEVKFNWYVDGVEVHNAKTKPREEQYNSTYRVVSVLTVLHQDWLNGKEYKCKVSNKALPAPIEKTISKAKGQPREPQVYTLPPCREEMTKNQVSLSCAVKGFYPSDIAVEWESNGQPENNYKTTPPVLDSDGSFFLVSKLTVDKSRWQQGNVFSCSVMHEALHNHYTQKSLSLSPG
T3 chain 2: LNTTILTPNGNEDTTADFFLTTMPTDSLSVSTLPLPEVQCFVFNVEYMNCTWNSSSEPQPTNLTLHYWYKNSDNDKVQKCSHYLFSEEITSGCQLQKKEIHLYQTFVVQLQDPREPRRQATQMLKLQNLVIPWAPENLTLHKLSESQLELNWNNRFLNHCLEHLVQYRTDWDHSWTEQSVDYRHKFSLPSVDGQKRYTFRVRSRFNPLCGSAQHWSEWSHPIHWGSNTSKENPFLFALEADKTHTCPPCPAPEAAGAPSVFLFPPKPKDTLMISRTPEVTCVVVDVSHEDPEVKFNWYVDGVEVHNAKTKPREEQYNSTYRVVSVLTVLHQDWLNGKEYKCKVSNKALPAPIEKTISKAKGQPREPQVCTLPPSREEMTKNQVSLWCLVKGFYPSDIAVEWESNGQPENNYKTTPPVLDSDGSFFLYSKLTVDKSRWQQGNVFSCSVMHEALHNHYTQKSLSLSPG
Nature of the assay: ELISA, IL-2Rβγ-Fc heterodimer coated. The protocol:
After overnight incubation at 4° C. and blocking with 1% BSA, 3-fold serial dilutions of IL-2 Fc fusion proteins starting at 10 nM were added to each well at 100 μl/well. […] Subsequently, 100 μl/well of streptavidin-HRP (1:5000 diluted in diluent) were added to each well and incubated at room temperature for 40 min. Wells were thoroughly aspirated and washed three times with PBS/0.05% Tween-20 following each step. Finally, 100 μl TMB substrate was added to each well; the plate was developed at room temperature in the dark for 10 minutes, and 100 μl/well of stop solution (2N Sulfuric acid, Ricca Chemical) was added. Absorbance was determined at 450 nm and curves were fit using Prism software (GraphPad).

For assay [6], the target named is PD-1 on PD-1 positive T cells (Tregs) of human PBMC (human, UniProt Q15116 25-288). The experiment in a line: cell-based or functional assay.
PD-1 on PD-1 positive T cells (Tregs) of human PBMC, sequence (Q15116 25-288): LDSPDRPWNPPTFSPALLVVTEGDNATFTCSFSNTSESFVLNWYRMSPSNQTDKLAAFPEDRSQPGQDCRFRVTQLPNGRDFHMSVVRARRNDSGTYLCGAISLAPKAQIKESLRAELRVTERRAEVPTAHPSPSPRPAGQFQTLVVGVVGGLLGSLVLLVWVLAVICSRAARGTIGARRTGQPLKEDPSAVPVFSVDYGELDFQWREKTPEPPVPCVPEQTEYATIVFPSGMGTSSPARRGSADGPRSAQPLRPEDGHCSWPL

Where a chain is given by its changes, count along the chain named. Names and notes keep the numbering of the source. Where only a bound is given, the exact number is not on record here.

human PD1-Fc protein, sequence (Q15116 25-167 limits assumed): as the sequence (Q15116 25-167 limits assumed) above

B1: P-0782 (antibody, mouse IgG1, kappa)
heavy 1: EVQLQESGPGLVKPSQSLSLTCSVTGYSITSSYRWNWIRKFPGNRLEWMGYINSAGISNYNPSLKRRISITRDTSKNQFFLQVNSVTTEDAATYYCARSDNMGTTPFTYWGQGTLVTVSSAKTTPPSVYPLAPGSAAQTNSMVTLGCLVKGYFPEPVTVTWNSGSLSSGVHTFPAVLQSDLYTLSSSVTVPSSTWPSQTVTCNVAHPASSTKVDKKIVPRDCGCKPCICTVPEVSSVFIFPPKPKDVLTITLTPKVTCVVVAISKDDPEVQFSWFVDDVEVHTAQTKPREEQINSTFRSVSELPIMHQDWLNGKEFKCRVNSAAFGAPIEKTISKTKGRPKAPQVYTIPPPKKQMAKDKVSLTCMITNFFPEDITVEWQWNGQPAENYKNTQPIMKTDGSYFVYSKLNVQKSNWEAGNTFTCSVLHEGLHNHHTEKSLSHSPG
heavy 2: not shown
light: DIVMTQGTLPNPVPSGESVSITCRSSKSLLYSDGKTYLNWYLQRPGQSPQLLIYWMSTRASGVSDRFSGSGSGTDFTLKISGVEAEDVGIYYCQQGLEFPTFGGGTKLELKRTDAAPTVSIFPPSSEQLTSGGASVVCFLNNFYPRDINVKWKIDGSERQNGVLNSWTDQDSKDSTYSMSSTLTLTKDEYERHNSYTCEATHKTSTSPIVKSFNRNEC
In the case of B1, in assay [1], the “pSTAT5 EC50 in CD8+ T cells (human PBMC)” value was found to be 4.6 nM. Also, in assay [2], the “pSTAT5 EC50 in Treg cells (human PBMC)” value came out at 4.5 nM and the “pSTAT5 EC50 in Treg cells, fold against P-0837” value was 10000 fold.

B2: P-0795 (antibody, human IgG1, kappa, V domains shown)
VH: EVQLVESGGGLVKPGGSLRLSCAASGFTFSSYDMSWVRQAPGKGLEWVATISGGGSYTYYPDSVKGRFTISRDNAKNSLYLQMNSLRAEDTAVYYCASPDSSGVAYWGQGTLVTVSS
VL: DIVMTQSPLSLPVTPGEPASITCKASQDVETVVAWYLQKPGQSPRLLIYWASTRHTGVPDRFSGSGSGTDFTLKISRVEAEDVGVYYCQQYSRYPWTFGQGTKLEIKR
notes: full heavy and light chains; also called human PD-1 antagonist antibody; hPD1 antibody
As to B2, in assay [3], a half-maximal effect (EC50) was put at 0.6 nM. In addition, the IC50 (as a rule, the concentration that gives 50% inhibition) in assay [4] was determined as 2.1 nM.

B3: P-0731 (Fc fusion)
chain 1: DKTHTCPPCPAPEAAGAPSVFLFPPKPKDTLMISRTPEVTCVVVDVSHEDPEVKFNWYVDGVEVHNAKTKPREEQYNSTYRVVSVLTVLHQDWLNGKEYKCKVSNKALPAPIEKTISKAKGQPREPQVCTLPPSREEMTKNQVSLWCLVKGFYPSDIAVEWESNGQPENNYKTTPPVLDSDGSFFLYSKLTVDKSRWQQGNVFSCSVMHEALHNHYTQKSLSLSPGGGGSGGGSAPTSSSTKKTQLQLEHLLHDLQMILNGINNYKNPKLTRMLTFKFYMPKKATELKHLQCLEEELKRLEEVLNLAQSKNFHLRPRDLISNINVIVLELKGSETTFMCEYADETATIVEFLNRWITFIQSIISTLT
chain 2: DKTHTCPPCPAPEAAGAPSVFLFPPKPKDTLMISRTPEVTCVVVDVSHEDPEVKFNWYVDGVEVHNAKTKPREEQYNSTYRVVSVLTVLHQDWLNGKEYKCKVSNKALPAPIEKTISKAKGQPREPQVYTLPPCREEMTKNQVSLSCAVKGFYPSDIAVEWESNGQPENNYKTTPPVLDSDGSFFLVSKLTVDKSRWQQGNVFSCSVMHEALHNHYTQKSLSLSPG
notes: knob chain carries the IL-2 variant; hole-Fc; monovalent; also called IL-2 L19H/P65R/S125I monovalent Fc fusion
Turning to B3, in assay [1], the “fold decrease in Ki67 expression on human CD8+ T cells (potency against P-0704)” value was about 30 fold; the “fold decrease in proliferation (Ki67) of human CD8+ T cells, NK cells and CD4+ T cells (potency against P-0704)” value came out at 30 fold. In addition, in assay [5], the binding result is reported as “binds”.

B4: P-0761 (Fc fusion)
chain 1: B3 chain 1 with H253Y
chain 2: B3 chain 2
notes: knob chain carries the IL-2 variant; hole-Fc; monovalent; also called IL-2 L19Y/P65R/S125I monovalent Fc fusion
Regarding B4, the binding result in assay [5] is listed as “binds”.

B5: P-0803 (antibody, human IgG1, kappa)
heavy 1: not shown
heavy 2: EVQLVESGGGLVKPGGSLRLSCAASGFTFSSYDMSWVRQAPGKGLEWVATISGGGSYTYYPDSVKGRFTISRDNAKNSLYLQMNSLRAEDTAVYYCASPDSSGVAYWGQGTLVTVSSASTKGPSVFPLAPSSKSTSGGTAALGCLVKDYFPEPVTVSWNSGALTSGVHTFPAVLQSSGLYSLSSVVTVPSSSLGTQTYICNVNHKPSNTKVDKKVEPKSCDKTHTCPPCPAPEAAGAPSVFLFPPKPKDTLMISRTPEVTCVVVDVSHEDPEVKFNWYVDGVEVHNAKTKPREEQYNSTYRVVSVLTVLHQDWLNGKEYKCKVSNKALPAPIEKTISKAKGQPREPQVYTLPPCREEMTKNQVSLSCAVKGFYPSDIAVEWESNGQPENNYKTTPPVLDSDGSFFLVSKLTVDKSRWQQGNVFSCSVMHEALHNHYTQKSLSLSPG
light: DIVMTQSPLSLPVTPGEPASITCKASQDVETVVAWYLQKPGQSPRLLIYWASTRHTGVPDRFSGSGSGTDFTLKISRVEAEDVGVYYCQQYSRYPWTFGQGTKLEIKRTVAAPSVFIFPPSDEQLKSGTASVVCLLNNFYPREAKVQWKVDNALQSGNSQESVTEQDSKDSTYSLSSTLTLSKADYEKHKVYACEVTHQGLSSPVTKSFNRGEC
notes: also called IL-2 P65R/S125I human PD-1 antibody fusion, (G3S)2 linker
B5: in assay [6], the “pSTAT5 in PD-1 positive T cells (human PBMC), potency against P-0782” value is over 15 fold. Also, in assay [3], the EC50 – broadly, the concentration giving half of the maximal effect – came out at 0.6 nM. Besides, the IC50 in assay [4] is 2.1 nM.

Source of the values: patent publication US20220235109A1 (CUGENE, published 2022).
